Patent publication US20260274985A1 (MYTHIC THERAPEUTICS, published 2026)

T1: Human TROP2 Protein, His Tag (human, UniProt P09758 27-274)
T1 construct: Bought protein; also called TACSTD2; not shown: His tag
T1 sequence (looked up): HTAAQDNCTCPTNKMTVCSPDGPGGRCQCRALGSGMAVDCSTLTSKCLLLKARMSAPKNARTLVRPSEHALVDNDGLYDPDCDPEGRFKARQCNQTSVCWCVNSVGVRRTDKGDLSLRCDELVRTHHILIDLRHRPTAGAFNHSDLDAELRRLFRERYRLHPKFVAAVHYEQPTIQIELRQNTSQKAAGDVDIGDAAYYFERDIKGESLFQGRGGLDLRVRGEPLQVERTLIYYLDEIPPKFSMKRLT


Biological target: T1, Human TROP2 Protein, His Tag
Test: BLI (Octet)

Binder	binding result
MYT11644 (antibody, V domains shown, IgG from supernatant; His at HCV position 34; also called datopotamab variant H1 09) VH: QVQLVQSGAEVKKPGASVKVSCKASGYTFTTAGHQWVRQAPGQGLEWMGWINTHSGVPKYAEDFKGRVTISADTSTSTAYLQLSSLKSEDTAVYYCARSGFGSSYWYFDVWGQGTLVTVSS VL: DIQMTQSPSSLSASVGDRVTITCKASQDVSTAVAWYQQKPGKAPKLLIYSASYRYTGVPSRFSGSGSGTDFTLTISSLQPEDFAVYYCQQHYITPLTFGQGTKLEIK	binds
MYT11660 (antibody, V domains shown, IgG from supernatant; His at HCV position 64; also called datopotamab variant H2 15) VH: QVQLVQSGAEVKKPGASVKVSCKASGYTFTTAGMQWVRQAPGQGLEWMGWINTHSGVPKYAEDHKGRVTISADTSTSTAYLQLSSLKSEDTAVYYCARSGFGSSYWYFDVWGQGTLVTVSS VL: DIQMTQSPSSLSASVGDRVTITCKASQDVSTAVAWYQQKPGKAPKLLIYSASYRYTGVPSRFSGSGSGTDFTLTISSLQPEDFAVYYCQQHYITPLTFGQGTKLEIK	binds
MYT11650 (antibody, V domains shown, IgG from supernatant; Ala at HCV position 54 (starting residue His); also called datopotamab variant H2 05) VH: QVQLVQSGAEVKKPGASVKVSCKASGYTFTTAGMQWVRQAPGQGLEWMGWINTASGVPKYAEDFKGRVTISADTSTSTAYLQLSSLKSEDTAVYYCARSGFGSSYWYFDVWGQGTLVTVSS VL: DIQMTQSPSSLSASVGDRVTITCKASQDVSTAVAWYQQKPGKAPKLLIYSASYRYTGVPSRFSGSGSGTDFTLTISSLQPEDFAVYYCQQHYITPLTFGQGTKLEIK	binds
MYT11654 (antibody, V domains shown, IgG from supernatant; His at HCV position 58; also called datopotamab variant H2 09) VH: QVQLVQSGAEVKKPGASVKVSCKASGYTFTTAGMQWVRQAPGQGLEWMGWINTHSGVHKYAEDFKGRVTISADTSTSTAYLQLSSLKSEDTAVYYCARSGFGSSYWYFDVWGQGTLVTVSS VL: DIQMTQSPSSLSASVGDRVTITCKASQDVSTAVAWYQQKPGKAPKLLIYSASYRYTGVPSRFSGSGSGTDFTLTISSLQPEDFAVYYCQQHYITPLTFGQGTKLEIK	binds
MYT11652 (antibody, V domains shown, IgG from supernatant; His at HCV position 56; also called datopotamab variant H2 07) VH: QVQLVQSGAEVKKPGASVKVSCKASGYTFTTAGMQWVRQAPGQGLEWMGWINTHSHVPKYAEDFKGRVTISADTSTSTAYLQLSSLKSEDTAVYYCARSGFGSSYWYFDVWGQGTLVTVSS VL: DIQMTQSPSSLSASVGDRVTITCKASQDVSTAVAWYQQKPGKAPKLLIYSASYRYTGVPSRFSGSGSGTDFTLTISSLQPEDFAVYYCQQHYITPLTFGQGTKLEIK	binds
MYT11659 (antibody, V domains shown, IgG from supernatant; His at HCV position 63; also called datopotamab variant H2 14) VH: QVQLVQSGAEVKKPGASVKVSCKASGYTFTTAGMQWVRQAPGQGLEWMGWINTHSGVPKYAEHFKGRVTISADTSTSTAYLQLSSLKSEDTAVYYCARSGFGSSYWYFDVWGQGTLVTVSS VL: DIQMTQSPSSLSASVGDRVTITCKASQDVSTAVAWYQQKPGKAPKLLIYSASYRYTGVPSRFSGSGSGTDFTLTISSLQPEDFAVYYCQQHYITPLTFGQGTKLEIK	binds
MYT11661 (antibody, V domains shown, IgG from supernatant; His at HCV position 65; also called datopotamab variant H2 16) VH: QVQLVQSGAEVKKPGASVKVSCKASGYTFTTAGMQWVRQAPGQGLEWMGWINTHSGVPKYAEDFHGRVTISADTSTSTAYLQLSSLKSEDTAVYYCARSGFGSSYWYFDVWGQGTLVTVSS VL: DIQMTQSPSSLSASVGDRVTITCKASQDVSTAVAWYQQKPGKAPKLLIYSASYRYTGVPSRFSGSGSGTDFTLTISSLQPEDFAVYYCQQHYITPLTFGQGTKLEIK	binds
MYT11655 (antibody, V domains shown, IgG from supernatant; His at HCV position 59; also called datopotamab variant H2 10) VH: QVQLVQSGAEVKKPGASVKVSCKASGYTFTTAGMQWVRQAPGQGLEWMGWINTHSGVPHYAEDFKGRVTISADTSTSTAYLQLSSLKSEDTAVYYCARSGFGSSYWYFDVWGQGTLVTVSS VL: DIQMTQSPSSLSASVGDRVTITCKASQDVSTAVAWYQQKPGKAPKLLIYSASYRYTGVPSRFSGSGSGTDFTLTISSLQPEDFAVYYCQQHYITPLTFGQGTKLEIK	binds
MYT11667 (antibody, V domains shown, IgG from supernatant; His at HCV position 101; also called datopotamab variant H3 05) VH: QVQLVQSGAEVKKPGASVKVSCKASGYTFTTAGMQWVRQAPGQGLEWMGWINTHSGVPKYAEDFKGRVTISADTSTSTAYLQLSSLKSEDTAVYYCARSGHGSSYWYFDVWGQGTLVTVSS VL: DIQMTQSPSSLSASVGDRVTITCKASQDVSTAVAWYQQKPGKAPKLLIYSASYRYTGVPSRFSGSGSGTDFTLTISSLQPEDFAVYYCQQHYITPLTFGQGTKLEIK	binds
MYT11662 (antibody, V domains shown, IgG from supernatant; His at HCV position 66; also called datopotamab variant H2 17) VH: QVQLVQSGAEVKKPGASVKVSCKASGYTFTTAGMQWVRQAPGQGLEWMGWINTHSGVPKYAEDFKHRVTISADTSTSTAYLQLSSLKSEDTAVYYCARSGFGSSYWYFDVWGQGTLVTVSS VL: DIQMTQSPSSLSASVGDRVTITCKASQDVSTAVAWYQQKPGKAPKLLIYSASYRYTGVPSRFSGSGSGTDFTLTISSLQPEDFAVYYCQQHYITPLTFGQGTKLEIK	binds
MYT11651 (antibody, V domains shown, IgG from supernatant; His at HCV position 55; also called datopotamab variant H2 06) VH: QVQLVQSGAEVKKPGASVKVSCKASGYTFTTAGMQWVRQAPGQGLEWMGWINTHHGVPKYAEDFKGRVTISADTSTSTAYLQLSSLKSEDTAVYYCARSGFGSSYWYFDVWGQGTLVTVSS VL: DIQMTQSPSSLSASVGDRVTITCKASQDVSTAVAWYQQKPGKAPKLLIYSASYRYTGVPSRFSGSGSGTDFTLTISSLQPEDFAVYYCQQHYITPLTFGQGTKLEIK	binds
MYT11646 (antibody, V domains shown, IgG from supernatant; His at HCV position 50; also called datopotamab variant H2 01) VH: QVQLVQSGAEVKKPGASVKVSCKASGYTFTTAGMQWVRQAPGQGLEWMGHINTHSGVPKYAEDFKGRVTISADTSTSTAYLQLSSLKSEDTAVYYCARSGFGSSYWYFDVWGQGTLVTVSS VL: DIQMTQSPSSLSASVGDRVTITCKASQDVSTAVAWYQQKPGKAPKLLIYSASYRYTGVPSRFSGSGSGTDFTLTISSLQPEDFAVYYCQQHYITPLTFGQGTKLEIK	binds
MYT11649 (antibody, V domains shown, IgG from supernatant; His at HCV position 53; also called datopotamab variant H2 04) VH: QVQLVQSGAEVKKPGASVKVSCKASGYTFTTAGMQWVRQAPGQGLEWMGWINHHSGVPKYAEDFKGRVTISADTSTSTAYLQLSSLKSEDTAVYYCARSGFGSSYWYFDVWGQGTLVTVSS VL: DIQMTQSPSSLSASVGDRVTITCKASQDVSTAVAWYQQKPGKAPKLLIYSASYRYTGVPSRFSGSGSGTDFTLTISSLQPEDFAVYYCQQHYITPLTFGQGTKLEIK	binds
MYT11657 (antibody, V domains shown, IgG from supernatant; His at HCV position 61; also called datopotamab variant H2 12) VH: QVQLVQSGAEVKKPGASVKVSCKASGYTFTTAGMQWVRQAPGQGLEWMGWINTHSGVPKYHEDFKGRVTISADTSTSTAYLQLSSLKSEDTAVYYCARSGFGSSYWYFDVWGQGTLVTVSS VL: DIQMTQSPSSLSASVGDRVTITCKASQDVSTAVAWYQQKPGKAPKLLIYSASYRYTGVPSRFSGSGSGTDFTLTISSLQPEDFAVYYCQQHYITPLTFGQGTKLEIK	binds
MYT11648 (antibody, V domains shown, IgG from supernatant; His at HCV position 52; also called datopotamab variant H2 03) VH: QVQLVQSGAEVKKPGASVKVSCKASGYTFTTAGMQWVRQAPGQGLEWMGWIHTHSGVPKYAEDFKGRVTISADTSTSTAYLQLSSLKSEDTAVYYCARSGFGSSYWYFDVWGQGTLVTVSS VL: DIQMTQSPSSLSASVGDRVTITCKASQDVSTAVAWYQQKPGKAPKLLIYSASYRYTGVPSRFSGSGSGTDFTLTISSLQPEDFAVYYCQQHYITPLTFGQGTKLEIK	binds
MYT11658 (antibody, V domains shown, IgG from supernatant; His at HCV position 62; also called datopotamab variant H2 13) VH: QVQLVQSGAEVKKPGASVKVSCKASGYTFTTAGMQWVRQAPGQGLEWMGWINTHSGVPKYAHDFKGRVTISADTSTSTAYLQLSSLKSEDTAVYYCARSGFGSSYWYFDVWGQGTLVTVSS VL: DIQMTQSPSSLSASVGDRVTITCKASQDVSTAVAWYQQKPGKAPKLLIYSASYRYTGVPSRFSGSGSGTDFTLTISSLQPEDFAVYYCQQHYITPLTFGQGTKLEIK	binds
MYT11673 (antibody, V domains shown, IgG from supernatant; also called datopotamab variant H3 11) VH: QVQLVQSGAEVKKPGASVKVSCKASGYTFTTAGMQWVRQAPGQGLEWMGWINTHSGVPKYAEDFKGRVTISADTSTSTAYLQLSSLKSEDTAVYYCARSGFGSSYWHFDVWGQGTLVTVSS VL: DIQMTQSPSSLSASVGDRVTITCKASQDVSTAVAWYQQKPGKAPKLLIYSASYRYTGVPSRFSGSGSGTDFTLTISSLQPEDFAVYYCQQHYITPLTFGQGTKLEIK	binds
MYT11647 (antibody, V domains shown, IgG from supernatant; His at HCV position 51; also called datopotamab variant H2 02) VH: QVQLVQSGAEVKKPGASVKVSCKASGYTFTTAGMQWVRQAPGQGLEWMGWHNTHSGVPKYAEDFKGRVTISADTSTSTAYLQLSSLKSEDTAVYYCARSGFGSSYWYFDVWGQGTLVTVSS VL: DIQMTQSPSSLSASVGDRVTITCKASQDVSTAVAWYQQKPGKAPKLLIYSASYRYTGVPSRFSGSGSGTDFTLTISSLQPEDFAVYYCQQHYITPLTFGQGTKLEIK	binds
MYT11656 (antibody, V domains shown, IgG from supernatant; His at HCV position 60; also called datopotamab variant H2 11) VH: QVQLVQSGAEVKKPGASVKVSCKASGYTFTTAGMQWVRQAPGQGLEWMGWINTHSGVPKHAEDFKGRVTISADTSTSTAYLQLSSLKSEDTAVYYCARSGFGSSYWYFDVWGQGTLVTVSS VL: DIQMTQSPSSLSASVGDRVTITCKASQDVSTAVAWYQQKPGKAPKLLIYSASYRYTGVPSRFSGSGSGTDFTLTISSLQPEDFAVYYCQQHYITPLTFGQGTKLEIK	binds
MYT11653 (antibody, V domains shown, IgG from supernatant; His at HCV position 57; also called datopotamab variant H2 08) VH: QVQLVQSGAEVKKPGASVKVSCKASGYTFTTAGMQWVRQAPGQGLEWMGWINTHSGHPKYAEDFKGRVTISADTSTSTAYLQLSSLKSEDTAVYYCARSGFGSSYWYFDVWGQGTLVTVSS VL: DIQMTQSPSSLSASVGDRVTITCKASQDVSTAVAWYQQKPGKAPKLLIYSASYRYTGVPSRFSGSGSGTDFTLTISSLQPEDFAVYYCQQHYITPLTFGQGTKLEIK	binds
MYT11664 (antibody, V domains shown, IgG from supernatant; His at HCV position 98; also called datopotamab variant H3 02) VH: QVQLVQSGAEVKKPGASVKVSCKASGYTFTTAGMQWVRQAPGQGLEWMGWINTHSGVPKYAEDFKGRVTISADTSTSTAYLQLSSLKSEDTAVYYCAHSGFGSSYWYFDVWGQGTLVTVSS VL: DIQMTQSPSSLSASVGDRVTITCKASQDVSTAVAWYQQKPGKAPKLLIYSASYRYTGVPSRFSGSGSGTDFTLTISSLQPEDFAVYYCQQHYITPLTFGQGTKLEIK	binds
